No end group written: not given here.

The data set can be described thus: Solubility of protein polymers. The data set is classed as physicochemical. From the text:
In order to both increase solubility of the protein backbone in organic solvents and to include a better enzymatic transglutaminase substrate for conjugation to chelators, a phenylalanine amino acid (F) will be added to the random coil backbone, resulting in GFKAGTGSA (SEQ ID NO: 4). It is contemplated that this protein structure will not form a particular secondary structure, behaving as a random coil in an aqueous solution. As indicated by the monomer sequence, the lysines are spaced every nine amino acids, which is still an optimal interval for a high concentration of Gd chelators, but still allowing enough room to prevent steric hindrance. […] It is contemplated that proteins including various amounts of leucines, a hydrophobic residue that is high on the hydropathy scale, provides novel protein polymers useful in the present invention that are both water and organo-soluble.
However, a protein soluble in organic solvents would allow coupling in N-methyl-pyrrolidone (NMP) using a peptide coupling agent such as Bromo-tris-pyrrolidinophosphoniumhexafluorophosphate (PyBroP) or 2-(IH-7-Azabenzotriazol-1-yl)-1,1,3,3-tetramethyluroniumhexafluorophosphate Methanaminium (HATU) in diisopropylethylamine (DIEA). Two equivalents of the chelator and at least 2:1 equivalents of the peptide-coupling agent will be used for each lysine site. […]

Turning to “GFKAGTGSA: protein polymer with monomer GFKAGTGSA (SEQ ID NO: 4), phenylalanine added to the random coil backbone (also: repeated monomer polymer)”, the solubility in water entry is “only soluble in water at high pH”. In addition, the solubility in organics result (organic solvents) is “not soluble in organics”.

Source of the values: patent US8021646B2, “Compositions and methods for magnetic resonance imaging contrast agents” (Northwestern University, priority 2006, dated 2011).
